Test results reported in publication PMC2173783.
Where two headings read alike, the source gives them in different places.

How the values were obtained:
Sec61 complex = test: radioligand binding
[1] = target: SRP receptor purified from canine pancreas (canine) (UniProt P06625); test: radioligand binding
[2] = target: bt-SR (bt-SRβ + SRα) (canine); test: IAsys optical biosensor
[3] = target: bt-SR (bt-SRβ + SRα) (canine); test: IAsys optical biosensor; remark: listed apart in the source
[4] = target: bt-SR (bt-SRβ + SRα) (canine); test: IAsys optical biosensor; remark: listed apart in the source

Substance	Kd (Sec61 complex) [nM]	Kd [1] [nM]	stoichiometry N [1]	Kd [2] [nM]	Kd [3] [nM]	koff [4] [s⁻¹]	koff [3] [s⁻¹]	kon [3] [M⁻¹ s⁻¹]
80S ribosomes (complex)	5.4	0.87	1	1.9	0.9			
signal recognition particle (from UniProt P61010 1-504) (complex)						0.0065	0.0069	48000
